In US9365836B2, “Glycosyltransferase gene and use thereof” (SUNTORY HOLDINGS LIMITED, priority 2011, dated 2016):

Key:
Format in all cases: biochemical
[1] = Determination of enzyme activity of His-Tag-purified SuGT protein solutions from Salvia uliginosa (HPLC)
Procedure: Escherichia coli expression constructs (pET-SuGT2, 5, 10) were created in a manner similar to that described in Example 5.
In a manner similar to that described in Example 5, “SuGT2 protein solution”, “SuGT5 protein solution” and “SuGT10 protein solution” were prepared.
[…] Subsequently, 200 μl of the stopping buffer (a 90% acetonitrile aqueous solution containing 0.1% TFA) was added to stop the reaction, and analyzed with a high performance liquid chromatography (Prominence (Shimadzu)). The detector used is Shimadzu PDA SPD-M10AVP, and the flavone was detected at 330 nm. The column used is Shim-Pack ODS 150 mm×4.6 mm (Shimadzu). In elution, solution A (a 0.1% TFA aqueous solution) and solution B (a 90% methanol aqueous solution containing 0.1% TFA) were used. A linear gradient from a 8:2 mixture of the two solutions to a 3:7 mixture over 10 minutes and then a 3:7 mixture over 6 minutes were used in elution. The flow rate was set at 0.6 ml/minute.

[2] = Reactivity to various flavonoid compounds and betanidine (FIG. 13)
[3] = Determination of enzyme activity of candidate glycosyltransferases, crude enzyme from Escherichia coli (HPLC); settings: crude enzyme solution, substrate apigenin, UDP-glucose, 30° C., 1 hour
Procedure: pET-NmGT0 through pET-NmGT9 were introduced into Escherichia coli strain BL2 using the One Shot BL21 (DE3) (Invitrogen) according to a protocol recommended by the manufacturer to obtain transformed Escherichia coli. The Escherichia coli was cultured, using the Overnight Express Autoinduction System 1 (Novagen) according to a protocol recommended by the manufacturer. With 2 ml of the culture liquid prepared, the transformed Escherichia coli was cultured at 37° C. (about 4 hours) until the OD600 value reached 0.5. To this Escherichia coli solution as the preculture, 50 ml of the culture liquid was added and then subjected to the main culture overnight at 27° C. […]
80 μl of the crude enzyme solution, 20 μl of 5 mM UDP-glucose, 20 μl of 1M Tris HCl (pH 7.5), and 1 μl of 500 ng/μl apigenin were prepared on ice to 200 μl in water, and the reaction mixture obtained was maintained at 30° C. for 1 hour. Subsequently, 200 μl of the stopping buffer (a 90% acetonitrile aqueous solution containing 0.1% TFA) was added to stop the reaction, and analyzed with a high performance liquid chromatography (Prominence (Shimadzu)). The detector used is Shimadzu PDA SPD-M10AVP, and the flavone was detected at 330 nm. […]

[4] = Determination of enzyme activity of His-Tag-purified NmGT3 and NmGT4 protein solutions (HPLC); settings: for product biosynthesized from apigenin 7-glucoside: substrate 50 ng/μl apigenin 7-glucoside, same condition; for product biosynthesized from apigenin: substrate 500 ng/μl apigenin, UDP-glucose, 30° C., 20 minutes; for product biosynthesized from apigenin 4′-glucoside: substrate apigenin 4′-glucoside, same condition (not shown)
Procedure: The Escherichia coli strain BL2 in which pET-NmGT3 or pET-NmGT4 described in Example 5 was introduced was cultured, using the Overnight Express Autoinduction System 1 (Novagen) according to a protocol recommended by the manufacturer. With 8 ml of the culture liquid prepared, the transformed Escherichia coli was cultured at 37° C. (about 4 hours) until the OD600 value reached 0.5. To this Escherichia coli solution as the preculture, 200 ml of the culture liquid was added and then subjected to the main culture overnight at 25° C.
The overnight-cultured Escherichia coli solution was centrifuged (1000×g, 4° C., 10 minutes), and the cells collected were suspended in 20 ml of a buffer (composition: NaCl: 0.5 M, Tris HCl (pH 7.9): 20 mM, imidazole: 5 mM, amidinophenyl methanesulfonyl fluoride hydrochloride (APMSF): 10 μM), and Escherichia coli was disrupted by sonication. The cells were then centrifuged (1400×g, 4° C., 20 minutes), and the supernatant was collected. The supernatant was passed through a 0.45 μm filter to His-Tag-purify using the Profinia (Bio-Rad) according to a protocol recommended by the manufacturer. The purified protein solution thus obtained was centrifuged (7500×g, 4° C., 15 minutes) using the Centrifugal filters (Ultracel-10K) (Amicon Ultra), and the concentrated protein solution was termed as “NmGT3 protein solution” and “NmGT4 protein solution”. For centrifugation, the Avanti HP-26 XP (rotor: JA-2) was used (BECKMAN COULTER).
20 μl of the protein solution, 20 μl of 5 mM UDP-glucose, 20 μl of 1M Tris HCl (pH 7.5), and 1 μl of 500 ng/μl apigenin were mixed and prepared on ice to 200 μl in water, and the reaction mixture obtained was maintained at 30° C. for 20 minutes. Subsequently, 200 μl of the stopping buffer (a 90% acetonitrile aqueous solution containing 0.1% TFA) was added to stop the reaction, and analyzed with a high performance liquid chromatography (Prominence (Shimadzu)). The detector used is Shimadzu PDA SPD-M10AVP, and the flavone was detected at 330 nm. The column used is Shim-Pack ODS 150 mm×4.6 mm (Shimadzu). In elution, solution A (a 0.1% TFA aqueous solution) and solution B (a 90% methanol aqueous solution containing 0.1% TFA) were used. A linear gradient from a 8:2 mixture of the two solutions to a 3:7 mixture over 10 minutes and then a 3:7 mixture over 6 minutes were used in elution. The flow rate was set at 0.6 ml/minute.

Molecule	product biosynthesized from apigenin 7-glucoside ([1]; substrate 500 ng/μg apigenin 7-glucoside, same condition)	product biosynthesized from apigenin ([1]; substrate 500 ng/μg apigenin, UDP-glucose, 30° C., 90 minutes)	reactivity to various flavonoid compounds and betanidine [2]	HPLC peaks after reaction of crude enzyme with apigenin [3]	product biosynthesized from apigenin 7-glucoside [4]	product biosynthesized from apigenin [4]	product biosynthesized from apigenin 4′-glucoside [4]
SuGT5: Salvia uliginosa glycosyltransferase (SEQ ID NO: 13, cDNA SEQ ID NO: 12) expressed in Escherichia coli, His-Tag purified (protein, listed as Salvia uliginousa, His-tag) MKQLHIALFPSMAHGHMIPMFELAKLFTSRGLKATIIATPAFAAPITKAQQSGLDVGLAITPFPPKGSSLPQNIIAFDQMTNPDLTTSFLRAMELLQEPVEAILQELHPDCLVSDMFLPWTADSAAKFQIPRLAFYGTSYFSRCVSEQVGDKPFNNVTSDSEPVLVPGLPQQIKFVRSQFSPVLLEETQNDFAKLFKQMTEAWKKTYGEVVNSFNELESDYANHYKNVIGRKAWEIGPLLLCSSSKGGEKNQQRGKESAIDEHECLAWLDSKNPNSVVYVCAGSVASFSQAQLRETAMGLEASGQNFVWVVRKNKEDDDDWLPVGFEERVGNRGLIIRGWAPQVMILNHAAVGAFVTHCGWNSTLEGVCAGLPMVTWPVFAEQFFNEKLVTEVLGTGVSVGNKRWMLRESEGVERDAVARAVEEIMVGGGAEEMRSRAENYKEMAKKAVEEGGSSYNNLNALIEELSNYVAPTIQDKN	a flavone exhibiting the same retention time and the same absorption maximum as the purified apigenin 4′,7-diglucoside product was biosynthesized	a flavone exhibiting the same retention time and the same absorption maximum as the purified apigenin 4′,7-diglucoside product had been biosynthesized	found to have an activity for not only apigenin and its glycosides but for luteolin and its glycosides and flavonol and its glycosides				
NmGT3: Nemophila glycosyltransferase (SEQ ID NO: 2, cDNA SEQ ID NO: 1) expressed in Escherichia coli, His-Tag purified (protein, listed as Nemophila menziesii, His-tag) MPSILSNSAHILLFPFPTSGHIIPILDLANQLLARGLTITILITPANLTLLSTQLIELDRLGSLHTLVLPFPNPPNPSETSLAARVHASSQLSNTIIQWFQSHTSPPVAIVSDFFLGWTNSLASQLGIPRLVFWPSGVQRSSLVDYIWQNDQLSDSDHQIQDNSVISFPDVPNSPAYPKWQACGLSTQYKKGDPSWEFFKNGVLANTQSWGAIYNSFRDLEGVYIDYIKKKMGHGRVWAVGPLLPANDASKRGGSCVMPIDDVMTWLDTKTNSDNSVVYVCFGSRVELTTEQLDSLAAALEISGVHFILCVKLHQEISKEYEDRVAGRGLIIRGWAPQVAILRHRAVGAFLTHCGWNSILEGIAAGVVMLTWPMGADQFTNANLLVDELKVAMKACEGGDSNVPNPAMLANVLAESINGGRAERERVTELCDAALKAVQSGNGSSAKDLDSLTNQLNGLKVKIN			found to have an activity for not only apigenin and its glycosides but for luteolin and its glycosides and flavonol and its glycosides	peaks other than that of the substrate were observed	a flavone exhibiting the same retention time and the same absorption maximum as the purified apigenin 4′,7-diglucoside product was biosynthesized	a flavone exhibiting the same retention time and the same absorption maximum as the purified apigenin 4′,7-diglucoside product had been biosynthesized	a flavone exhibiting the same retention time and the same absorption maximum as the apigenin 4′,7-diglucoside purified product was biosynthesized
NmGT4: Nemophila glycosyltransferase (SEQ ID NO: 4, cDNA SEQ ID NO: 3) expressed in Escherichia coli, His-Tag purified (protein, listed as Nemophila menziesii, His-tag) MAAQLHVVFFPFMAQGHLIPTLEMVKLFSSRGLKTTIVTTKFYAPAVTKSIEKTKHTGNQINIIIIKFPSAEVGLPEGSESLDKLKSPDMFMKFFKALSLLQEPFEQILQELSPDCIVSDMFFPWTTASAAKFDIPRFVFHGLSLFALCVSENMRFYKPFKNLGSESLDSEPVMLPDFPNQIEFSKVQVPEFEVGESKNEIMELLNQVKESEVKSYGIIINSFNELEKDYVDYYRNVWGRRAWLLGPLSLSNRDDEVKDQTDEHGSLKWLDSKKPDSVIYVCFGSVAPLSSSQLHEIALGLESSGQQFIWVVKEREDGEKWLPEGFEERIKDKGLIIRGWAPQVSILEHESTGGFVTHCGWNSVLEAVSAGVVMATLPTFAEQPFNEKLLTKVLKIGIPIGSPLSNRGKSGVKKEEIAEAMKGIMEGEEALEMRIRAKSLKEMAWKAVEEGGSSYNDLTSLIDGVKAYRSQSNKI			found to have an activity for not only apigenin and its glycosides but for luteolin and its glycosides and flavonol and its glycosides	peaks other than that of the substrate were observed	a flavone exhibiting the same retention time and the same absorption maximum as the purified apigenin 4′,7-diglucoside product was biosynthesized	a flavone exhibiting the same retention time and the same absorption maximum as the purified apigenin 4′,7-diglucoside product had been biosynthesized	a flavone exhibiting the same retention time and the same absorption maximum as the apigenin 4′,7-diglucoside purified product was biosynthesized
